Measurements: article doi:10.1101/2024.09.27.615457 (bioRxiv, 2024)

Target: T1, MBP-tagged bHLH107 (Arabidopsis, UniProt Q9LET0 1-230)
T1 sequence (looked up): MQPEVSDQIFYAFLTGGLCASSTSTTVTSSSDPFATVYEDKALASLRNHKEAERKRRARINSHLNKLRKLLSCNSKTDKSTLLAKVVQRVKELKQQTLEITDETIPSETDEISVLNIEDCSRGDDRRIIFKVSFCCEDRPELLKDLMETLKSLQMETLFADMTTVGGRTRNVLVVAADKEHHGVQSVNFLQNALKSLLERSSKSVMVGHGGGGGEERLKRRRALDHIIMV
Assay: pull-down

B1: His-tagged HY5 (natural protein, Arabidopsis, UniProt O24646 1-168, looked up)
chain: MQEQATSSLAASSLPSSSERSSSSAPHLEIKEGIESDEEIRRVPEFGGEAVGKETSGRESGSATGQERTQATVGESQRKRGRTPAEKENKRLKRLLRNRVSAQQARERKKAYLSELENRVKDLENKNSELEERLSTLQNENQMLRHILKNTTGNKRGGGGGSNADASL
**Q.** Does B1 bind?
**A.** Result: binds
